Results as given in paper PMC3936747 (Nucleic Acids Research, 2013).
Changes are numbered by the printed parent chain. Where two headings read alike, the source gives them in different places.

T1: SpoIIIE motor domain (SpoIIIE C-terminal) (Bacillus subtilis, UniProt P21458 177-787)
T1 sequence: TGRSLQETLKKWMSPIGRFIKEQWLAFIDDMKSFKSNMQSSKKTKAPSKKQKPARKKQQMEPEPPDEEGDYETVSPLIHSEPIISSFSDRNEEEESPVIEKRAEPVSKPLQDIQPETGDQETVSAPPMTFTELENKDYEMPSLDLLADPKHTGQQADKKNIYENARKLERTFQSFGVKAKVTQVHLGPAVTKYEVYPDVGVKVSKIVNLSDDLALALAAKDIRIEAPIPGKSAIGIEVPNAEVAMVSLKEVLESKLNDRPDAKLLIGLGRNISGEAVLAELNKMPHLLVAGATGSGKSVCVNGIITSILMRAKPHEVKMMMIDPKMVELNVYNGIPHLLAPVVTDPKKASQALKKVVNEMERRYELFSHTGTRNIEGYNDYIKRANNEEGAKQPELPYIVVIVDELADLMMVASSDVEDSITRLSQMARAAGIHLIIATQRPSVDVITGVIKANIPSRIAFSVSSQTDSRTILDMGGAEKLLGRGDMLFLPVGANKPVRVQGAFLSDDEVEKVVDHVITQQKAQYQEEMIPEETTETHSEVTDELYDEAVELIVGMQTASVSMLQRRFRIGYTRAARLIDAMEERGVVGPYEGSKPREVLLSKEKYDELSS

T2: SpoIIIE467 (Walker A mutant) (Bacillus subtilis, UniProt P21458 177-787, G467S)
T2 sequence: T1 sequence with G291S

B1: SpoIIIE C-terminal motor domain (residues 177-787) with a C-terminal hexahistidine tag (domain or fragment, Bacillus subtilis, UniProt P21458 177-787, looked up)
chain: T1 sequence
B2: DNANS (43 bp, no SRS) (dsDNA)
DNA 1: GCGGAGGCGGGAGGCGGAGATCTTACCGCTGTTGAGATCCAGC
DNA 2: GCTGGATCTCAACAGCGGTAAGATCTCCGCCTCCCGCCTCCGC

Experiments:
[1] = target: the molecule itself; assay: negative-stain electron microscopy
[2] = target: T1, SpoIIIE motor domain (SpoIIIE …); assay: fluorescence anisotropy
[3] = target: T1, SpoIIIE motor domain (SpoIIIE …); assay: fluorescence anisotropy; remark: listed apart in the source
[4] = target: T1, SpoIIIE motor domain (SpoIIIE …); assay: fluorescence anisotropy; remark: listed apart in the source
[5] = target: T2, SpoIIIE467 (Walker A mutant); assay: fluorescence anisotropy

Binder	stoichiometry N [1]	Kd [2]	Kd [3]	Kd [4]	Kd [5]
B1	6	–	–	–	–
B2	–	43 ± 9 nM	61 ± 11 nM	60 ± 9 nM	63 ± 3 nM
